Measurements reported in US20240052042A1 (Novartis, published 2024).
Substitutions are numbered along the chain they refer to. Each block holds one binder with its values, some of them ahead of it.

How the values were obtained:
[1] = target: T1, human NPR1 on CHO-K1 cells in the presence of ANP (human, UniProt P01160 124-151); assay: flow cytometry (FL2-H) on hNPR1 CHO-K1 cells with saturating ANP, IgG titrated; control parental CHO-K1 [Cont.), panel XX08]
T1 construct: also called hNPR1 CHO K1 + 100 nM ANP
T1 sequence: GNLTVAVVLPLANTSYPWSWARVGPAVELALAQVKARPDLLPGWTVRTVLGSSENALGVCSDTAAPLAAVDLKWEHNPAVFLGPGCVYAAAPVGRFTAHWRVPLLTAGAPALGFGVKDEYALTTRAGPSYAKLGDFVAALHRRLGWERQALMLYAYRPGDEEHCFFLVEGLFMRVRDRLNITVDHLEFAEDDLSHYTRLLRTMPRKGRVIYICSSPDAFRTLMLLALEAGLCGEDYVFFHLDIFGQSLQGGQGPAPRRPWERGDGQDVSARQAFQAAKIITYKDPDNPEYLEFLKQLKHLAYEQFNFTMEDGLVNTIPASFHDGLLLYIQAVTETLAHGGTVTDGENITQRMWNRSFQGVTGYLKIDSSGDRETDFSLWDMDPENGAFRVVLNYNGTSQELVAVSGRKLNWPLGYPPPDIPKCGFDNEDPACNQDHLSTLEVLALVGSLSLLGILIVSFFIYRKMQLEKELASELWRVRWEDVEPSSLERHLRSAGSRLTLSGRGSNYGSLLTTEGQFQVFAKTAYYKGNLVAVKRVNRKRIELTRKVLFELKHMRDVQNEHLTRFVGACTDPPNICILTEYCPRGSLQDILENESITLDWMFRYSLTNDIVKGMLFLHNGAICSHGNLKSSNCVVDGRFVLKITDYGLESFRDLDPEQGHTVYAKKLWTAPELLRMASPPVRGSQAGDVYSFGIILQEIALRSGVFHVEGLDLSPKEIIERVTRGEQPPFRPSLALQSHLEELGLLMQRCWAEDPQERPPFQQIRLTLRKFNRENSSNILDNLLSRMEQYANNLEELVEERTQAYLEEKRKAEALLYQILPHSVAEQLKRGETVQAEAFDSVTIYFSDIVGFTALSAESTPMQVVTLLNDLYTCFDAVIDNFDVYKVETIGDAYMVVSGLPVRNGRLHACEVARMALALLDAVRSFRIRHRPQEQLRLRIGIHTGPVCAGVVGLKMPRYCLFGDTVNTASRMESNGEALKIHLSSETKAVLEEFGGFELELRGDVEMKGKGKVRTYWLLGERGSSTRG
T1 sequence (peptide): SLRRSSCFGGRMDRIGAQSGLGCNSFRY

rat NPR1 (rNPR1) [2] = target: T2, rat NPR1 (rNPR1) (rat, UniProt P18910 29-469, limits assumed); assay: ELISA, IgG titrated on coated antigen, fluorescence [Cont.]
T2 construct: Soluble antigen
T2 sequence: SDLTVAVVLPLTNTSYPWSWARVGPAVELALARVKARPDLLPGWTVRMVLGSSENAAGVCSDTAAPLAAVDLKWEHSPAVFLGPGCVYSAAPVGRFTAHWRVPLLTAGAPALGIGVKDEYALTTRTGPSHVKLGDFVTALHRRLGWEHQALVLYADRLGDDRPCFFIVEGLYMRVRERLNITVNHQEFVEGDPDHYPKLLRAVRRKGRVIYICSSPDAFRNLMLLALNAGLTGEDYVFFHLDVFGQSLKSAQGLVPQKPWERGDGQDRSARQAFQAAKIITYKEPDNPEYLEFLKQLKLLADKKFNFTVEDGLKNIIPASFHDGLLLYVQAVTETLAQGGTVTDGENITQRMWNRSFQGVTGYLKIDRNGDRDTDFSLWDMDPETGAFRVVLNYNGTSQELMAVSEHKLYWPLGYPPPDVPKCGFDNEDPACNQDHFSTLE

[3] = target: T3, human Natriuretic Peptide Receptor 1 (hNPR1) (human, UniProt P16066 33-473, limits assumed); assay: as above
T3 construct: pannings used NPR1-hFc; also called NPR1-hFc
T3 sequence: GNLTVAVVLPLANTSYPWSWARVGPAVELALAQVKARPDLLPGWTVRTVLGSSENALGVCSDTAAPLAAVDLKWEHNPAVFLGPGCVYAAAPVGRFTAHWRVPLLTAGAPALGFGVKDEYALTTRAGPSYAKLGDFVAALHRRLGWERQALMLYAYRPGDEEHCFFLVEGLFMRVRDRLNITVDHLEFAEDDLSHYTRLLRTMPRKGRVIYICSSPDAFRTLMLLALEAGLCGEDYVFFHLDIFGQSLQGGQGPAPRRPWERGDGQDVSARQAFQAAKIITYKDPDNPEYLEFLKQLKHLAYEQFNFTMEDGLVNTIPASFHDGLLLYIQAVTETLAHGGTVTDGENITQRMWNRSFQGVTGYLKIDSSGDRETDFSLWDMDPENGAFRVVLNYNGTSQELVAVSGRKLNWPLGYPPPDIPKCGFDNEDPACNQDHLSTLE

hNPR1-ANP complex [4] = target: T4, hNPR1-ANP complex (human, UniProt P01160 124-151, limits assumed); assay: FRET ANP competition assay, IgG titrated on hNPR1 with Cy5-labeled ANP; negative values mean more ANP signal [panel XX01]
T4 construct: hNPR1 antigen in the presence of ANP; also called hNPR1 + 100 nM ANP
T4 sequence: T3 sequence
T4 sequence (peptide): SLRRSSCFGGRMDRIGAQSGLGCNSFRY
Description: The same 31 IgGs were tested for ANP competition using a Fluorescence Resonance Energy Transfer (FRET)-based assay in which the NPR1-specific antibodies competed with ANP for binding to NPR1. In this FRET based assay (see FIG. 3), Eu-labeled Streptavidin (for measurement of IgGs) or Eu-labeled anti-hFc antibody (for measurement of FabCys) was used as an energy donor, while Cy5-labeled ANP was used as an acceptor (for all measurements). The resulting fluorescent signal was decreased by ANP-competitive antibodies. The assay was performed as follows: antibodies were mixed with NPR1 and incubated for 5 minutes at room temperature. After addition of the Eu-labeled donor and incubation for 30 minutes at room temperature, the Cy5-ANP solution was added. After a further 60-minute incubation, readout was performed using a TECAN Infinite M1000 Pro using an excitation wavelength of 317 nm and an emission wavelength of 665 nm. Percentage of ANP competition was calculated according to the following formulae: […]

[5] = target: T1, human NPR1 on CHO-K1 cells in the …; assay: flow cytometry (FL2-H) on hNPR1 CHO-K1 cells with saturating ANP, IgG titrated; control parental CHO-K1 [panel XX01]
[6] = target: T1, human NPR1 on CHO-K1 cells in the …; assay: flow cytometry (FL2-H) on hNPR1 CHO-K1 cells with saturating ANP, IgG titrated; control parental CHO-K1 [panel XX04]
rNPR1-ANP complex [7] = target: T5, rNPR1-ANP complex (rat, UniProt P01160 124-151 (human entry), limits assumed); assay: ELISA, IgG titrated on coated antigen with ANP (250 fold molar excess), fluorescence [Cont.]
T5 construct: rNPR1 antigen in the presence of ANP; also called rNPR1 + 100 nM ANP
T5 sequence: T2 sequence
T5 sequence (peptide): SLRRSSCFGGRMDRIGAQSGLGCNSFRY

[8] = target: W74R hNPR1 mutant in the presence of ANP (human) (UniProt P01160); assay: ELISA, IgG
[9] = target: constitutively active human NPR1 mutant (W74R) (human) (UniProt P16066); assay: ELISA, IgG
[10] = target: human NPR1 on CHO-K1 cells in the presence of ANP (human) (UniProt P01160); assay: flow cytometry, hNPR1 CHO-K1 cells, IgG
rat NPR1 (rNPR1) [11] = target: T2, rat NPR1 (rNPR1); assay: ELISA, IgG titrated on coated antigen, fluorescence [Cont.]; remark: listed apart in the source
[12] = target: T1, human NPR1 on CHO-K1 cells in the …; assay: flow cytometry (FL2-H) on hNPR1 CHO-K1 cells with saturating ANP, IgG titrated; control parental CHO-K1 [Cont.), panel YY04]
hNPR1-ANP complex [13] = target: T4, hNPR1-ANP complex; assay: ELISA, 1 µM IgG; design: unit not given here
rNPR1-ANP complex [14] = target: T5, rNPR1-ANP complex; assay: ELISA, 1 µM IgG; design: unit not given here
[15] = target: T1, human NPR1 on CHO-K1 cells in the …; assay: flow cytometry, hNPR1 CHO-K1 cells, IgG

EC50 (read off the curve) [1]: ~2 nM | EC50 (read off the curve) (rat NPR1 (rNPR1) [2]): ~20 nM | EC50 (read off the curve) [3]: ~20 nM
B1: XX08 (antibody, V domains shown)
VH: EVQLLESGGGLVQPGGSLRLSCAASGFTFNTHYIHWVRQAPGKGLEWVSSIGGQGGMTLYADSVKGRFTISRDNSKNTLYLQMNSLRAEDTAVYYCARERGYVYYHMFDPWGQGTLVTVSS
VL: DIVLTQSPATLSLSPGERATLSCRASQSITRNYLAWYQQKPGQAPRLLIYGASSRATGIPARFSGSGSGTDFTLTISSLEPEDFAVYYCQQHSMYPRTFGQGTKVEIKR
notes: x axis reads IgG conc; [nM]; also called XX08 (IgG format)

EC50 (read off the curve) (hNPR1-ANP complex [4]): ~0.1 nM | EC50 (read off the curve) [5]: ~0.8 nM
B2: XX01 (IgG format) (antibody, V domains shown)
VH: B1 VH with G52S, G53S, Q54S, G56Q, M57S, L59Y
VL: DIVLTQSPATLSLSPGERATLSCRASQSITRNYLAWYQQKPGQAPRLLIYGASSRATGIPARFSGSGSGTDFTLTISSLEPEDFAVYYCQQHSMYPRTFGQGTKVEIK

EC50 (read off the curve) [6]: ~2 nM
B3: XX04 (IgG format) (antibody, V domains shown)
VH: QVQLLESGGGLVQPGGSLRLSCAASGFTFSSYWMNWVRQAPGKGLEWVSAISSDGSYTYYADSVKGRFTISRDNSKNTLYLQMNSLRAEDTAVYYCARDRYSMIYSYGAGAFDYWGQGTLVTVSS
VL: DIQMTQSPSSLSASVGDRVTITCRASQGISSYLAWYQQKPGKAPKLLIYTASTLQSGVPSRFSGSGSGTDFTLTISSLQPEDFATYYCQQEWVKPRTFGQGTKVEIK

binding result (rNPR1-ANP complex [7]): no binding (tested: 1000 nM) | EC50 [8]: 0.8 nM | EC50 [9]: 0.9 nM | flow cytometry S/BG at 2 µM IgG [10]: 1.1 S/BG | binding result (rat NPR1 (rNPR1) [11]): no binding (tested: 1000 nM)
B4: WW06 (IgG format) (antibody, V domains shown)
VH: QVQLVQSGAEVKKPGESLKISCKGSGYSFTSYWIAWVRQMPGKGLEWMGRIDPDNSYTRYSPSFQGQVTISADKSISTAYLQWSSLKASDTAMYYCARWLSPGYALGEQPAGMDHWGQGTLVTVSS
VL: DIVLTQPPSVSGAPGQRVTISCTGSSSNIGAGYAVHWYQQLPGTAPKLLIYSNNKRPSGVPDRFSGSKSGTSASLAITGLQAEDEADYYCQSYDLQKSSRVFGGGTKLTVLG
notes: also called WW06_LALA

EC50 (read off the curve) [12]: ~0.2 nM | ELISA binding at 1 µM IgG (hNPR1-ANP complex [13]): 60 | ELISA binding at 1 µM IgG (rNPR1-ANP complex [14]): 54 | flow cytometry S/BG at 1 µM IgG [15]: 33 S/BG
B5: YY04 (IgG format) (antibody, V domains shown)
VH: EVQLVESGGGLVKPGGSLRLSCAASGFTFSNYWISWVRQAPGKGLEWVGRIKSKTYGGTTDYAEPVKGRFTISRDDSKNTLYLQMNSLKTEDTAVYYCAREKYSIRARGHGDYGFDVWGQGTLVTVSS
VL: DIQMTQSPSSLSASVGDRVTITCRASQGISNYLAWYQQKPGKVPKLLIYAASTLQSGVPSRFSGSGSGTDFTLTISSLQPEDVATYYCQQGYHAPFTFGQGTKVEIKR
notes: also called YY04_LALA
